Source: patent US20260234592
Substitutions are numbered along the chain they refer to. Names and notes keep the numbering of the source. “Also recorded” adds a separate entry of the source.

B1: R49A_L76P variant TEV protease (triple variant further comprising R49A and L76P), expressed in vivo (protein)
chain: GESLFKGPRDYNPISSTICHLTNESDGHTTSLYGIGFGPFIITNKHLFARNNGTLVVQSLHGVFKVKNTTTLQQHPIDGRDMIIIRMPKDFPPFPQKLKFREPQREERICLVTTNFQTKSMSSMVSDTSCTFPSGDGIFWKHWIQTKDGQCGSPLVSTRDGFIVGIHSASNFTNTNNYFTSVPKNFMELLTNQEAQQWVSGWRLNADSVLWGGHKVFMVKPEEPFQPVKEATQLMNE
B2: R49L_L76P variant TEV protease (triple variant further comprising R49L and L76P), expressed in vivo (protein)
chain: B1 chain with A49L
B3: R49I_L76P variant TEV protease (triple variant further comprising R49I and L76P), expressed in vivo (protein)
chain: B1 chain with A49I
B4: R49G_L76P variant TEV protease (triple variant further comprising R49G and L76P), expressed in vivo (protein)
chain: B1 chain with A49G
B5: R49V variant TEV protease (N-terminal His tag; R49V, L56V, S135G, S219V) (protein)
chain: GHHHHHHHGESLFKGPRDYNPISSTICHLTNESDGHTTSLYGIGFGPFIITNKHLFVRNNGTLVVQSLHGVFKVKNTTTLQQHLIDGRDMIIIRMPKDFPPFPQKLKFREPQREERICLVTTNFQTKSMSSMVSDTSCTFPSGDGIFWKHWIQTKDGQCGSPLVSTRDGFIVGIHSASNFTNTNNYFTSVPKNFMELLTNQEAQQWVSGWRLNADSVLWGGHKVFMVKPEEPFQPVKEATQLMNE
B6: R49F_L76P variant TEV protease (N-terminal His tag; R49F, L56V, L76P, S135G, S219V) (protein)
chain: B5 chain with V57F, L84P
B7: control TEV protease (TEV protease triple variant L56V, S135G, S219V with N-terminal His tag) (protein)
chain: B5 chain with V57R
B8: L76P variant TEV protease (N-terminal His tag; L56V, L76P, S135G, S219V) (protein)
chain: B5 chain with V57R, L84P
B9: R49V_L76P variant TEV protease (N-terminal His tag; R49V, L56V, L76P, S135G, S219V) (protein)
chain: B5 chain with L84P

Tests used:
[1] = biological target: CBD-TEVrs-bglA (N-terminal His-tagged chitin binding domain, TEVrs ENLYFQG, 6-phospho-β-glucosidase A)
[2] = biological target: MBP5-TEV-paramyosin ΔSal (maltose binding protein domain and a paramyosin fragment linked by a TEV protease recognition sequence)

Protein	CBD-TEVrs-bglA cleavage over time at 30° C. [1]	CBD-TEVrs-bglA cleavage over time at 30° C. and 20° C. [1]	Slope of ln(1-(cleavage ratio)) against the concentration of TEV protease, 4° C., 18 hours [1]	protease concentration that reaches almost 100% cleavage, 4° C., 18 hours [1]	substrate cleaved, 0° C., 18 hours [1]	substrate cleaved, 4° C., 18 hours [1]	other results
B1	all variants performed better that the control						
B2	all variants performed better that the control						
B3	all variants performed better that the control						
B4	all variants performed better that the control						
B5		showed slightly weaker activity than control TEV protease	y = -11.281x - 0.2037				Ratio kR49V/kcontrol = (kcat/KM)R49V/(kcat/KM)control [1]: 2
B6	all variants performed better that the control with the R49F_L76P variant (SEQ ID NO: 11) displaying the highest activity		y = -13.518x - 0.0413	the R49F_L76P variant reached almost 100% cleavage at 0.5 µM	the R49F_L76P variant cleaved 86% of the substrate	the R49F_L76P variant cleaved 97% of the substrate	Ratio kR49F-L76P/kcontrol = (kcat/KM)R49F-L76P/(kcat/KM)control [1]: 2.6; cleavage of the substrate, 4° C., 1 hour [2]: The variant protease achieved 85% cleavage in just 1 hour at 4 °C; cleavage of the substrate, 4° C., 3 hours [2]: The variant TEV protease cleaved 98% of the substrate in 3 hours; cleavage of the substrate, 4° C., 5 hours [2]: 99% in 5 hours
B7				2 µM of the control TEV protease was needed to reach the same mark	the control TEV protease cleaved 64% of the substrate	Control TEV protease cleaved the substrate by 73%; also recorded: the control TEV protease cleaved 77% of the substrate	
B8		At both temperatures, the L76P variant showed higher activity than control TEV protease	y = -13.611x - 0.0596		the L76P variant cleaved 75% of the substrate	the L76P variant cleaved 87% of the substrate	Ratio kL76P/kcontrol = (kcat/KM)L76P/(kcat/KM)control [1]: 1.7
B9	all variants performed better that the control	the R49V_L76P variant showed higher activity than L76P variant	y = -11.117x - 0.0916	the R49V_L76P variant reached almost 100% cleavage at 0.5 µM		R49V_L76P variant cleaved the substrate by 94%	Ratio kR49V-L76P/kcontrol = (kcat/KM)R49V-L76P/(kcat/KM)control [1]: 1.5
